Measured values as given in the supplement of paper PMC12764529.
± gives the half width of the 95% confidence interval.

Key:
[1] = folding stability dG unfold from chymotrypsin proteolysis; higher = more stable
Procedure: (§1)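 Folding stability of de novo designed mini-proteins (<80 aa, no Cys; designed by TrROS, TrMRF, ProteinMPNN and the joint model) was measured by cDNA display proteolysis with trypsin and chymotrypsin. Each protease was used at 11 concentrations in a threefold dilution series plus a no-protease condition. K50 was inferred by Bayesian fitting of sequencing counts, and dG unfold was derived against a sequence-predicted unfolded-state K50 (Tsuboyama et al. method). Sequences shown include variable-length N-terminal GS-type padding (SAGGSAGG...) inside a display construct carrying a PA tag. Rows were kept only if the AF2 dimer inter-PAE was >15, to exclude likely homo-oligomers.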

[2] = folding stability dG unfold (combined trypsin and chymotrypsin); higher = more stable
Procedure: as §1

Sequence | folding stability dG unfold [1] [kcal/mol] | folding stability dG unfold [2] [kcal/mol]
KKRTIEIPFPANGYKVKIEVPEDQGKPIDEEEIQKLLREWHPDMPADDMPAKEIAKYLADEPGIKEVEIERS [r1_463_TrROS] | 0.479 ± 0.25 | 0.132 ± 0.28
MDIPIKELLKKAAENGVRIVFPNGAETLSIFPDGEAVVRFPVELPDRPGIPVEEVERVIKIKEDGSLEVEGS [r1_284_TrMRF] | -1.08 ± 0.65 | < -1
MTPEAFAGPGGRPLAELFLARFRRPVLDPETGLPTWEPAGVLVFPRETEPEELAAIFEALPELEEIEIAPAS [r1_132_TrMRF] | 0.149 ± 0.22 | -0.149 ± 0.22
PEISELTSEESEDGTTFTETKVTLKDPNSNKKINATRKVETEVVGDSTTVTSTLTLPKDKKTINESYTISPS [r1_374_JUSTAS] | -0.591 ± 0.61 | < -1
PGEMVPIEWPVKVRVRDPNGPGNKKREVEIPIEYPYPPGQKDPEQMLEMAHELAEELAEKEGPKDVEIEPIS [r1_300_TrROS] | 0.271 ± 0.13 | -0.474 ± 0.31
SADKVIIPFDSPEEIKGIIKEARKAGIPGKEIVIWSEDDWMYKIEVDPNKGNVEIEPVMPPEDLNDEMPSAG [r14_913_TrROS] | 0.629 ± 0.048 | 0.0128 ± 0.12
SAGAAAIAEKLGFSPELVEILSVEDVEYTIVVRRTGEPVKMKRPTVKVLVTDPSVPKETTAEVPVAELASAG [r5_517_JUSTAS] | -0.807 ± 0.57 | -0.714 ± 0.35
SAGDLGEEALKDITENSTPVSPNETRTTTAVIKYKDKLVKITTTVKVPPESGTTVLSTPIEIFSPEELKSAG [r5_96_JUSTAS] | -0.118 ± 0.33 | < -1
SAGEVETRTLPDGSVEIRRVERDPNSDQEVETRERVTFDPATGTARVPREVYRGDRWETEERVIALPASAGG [r19_289_JUSTAS] | 0.456 ± 0.16 | -0.38 ± 0.27
SAGGELLEDLNIKEIEVTEVKTYRNPENGMRMYEPTLTIKNPDGEKIKFTIEHMYDPGNPKPMIHIMSAGGS [r8_422_TrROS] | -0.212 ± 0.52 | –
SAGGESIVIPVKTLEEAKKVAEEIKEKFEKLGYKVEIFEEPETGRIIVKVTKKDKGTVSTTIITFPVPSAGG [r13_641_JUSTAS] | 4.21 ± 0.76 | –
SAGGMPPNATLSGKRVDFKPVPHPDGKTLLKIYYNGKPIEEIEVPPGEAEKLIAELPENTNIVTLPESAGGS [r8_41_JUSTAS] | -0.33 ± 0.58 | –
SAGGSAGGSAGPEEFEVLEMEAELNPETGEITVRFGSPEGEEITYTVTRPGELENLKLYASAGGSAGGSAGG [r11_711_TrMRF] | -0.136 ± 0.39 | –
SAGGSAGGSYLVKIEWRHNGKPIEQTIPIDPGELPLEDIASNFPGYPWKIKVMDPNGEERPFTSAGGSAGGS [r12_540_TrROS] | -0.0033 ± 0.33 | –
SAGGSAMNVKSKETVEELFSESPEKVSIKKTTTYTFPNSKTVEITYYKPDGKKIATKNLPLSEYSSSAGGSA [r15_755_JUSTAS] | -0.238 ± 0.59 | –
SAGWVVIEIPKKEIPINPENVQIQEDNDRRYIFIPGEDADELKDQFPNKDVKIEPMPPEQMDRFMKQLSAGG [r19_271_TrROS] | -0.242 ± 0.55 | –
SAMKIYVAPGPFTVTARPALPGGEEITITTPITPEQVADPAFLEALVQALEDAGVPATYSILPAGVALPSAG [r14_60_JUSTAS] | 0.597 ± 0.22 | –
SVRPDEPVRITVRFPARPVTRYRARPTGPFLGAEPVPVPSATLTLTVPAADLEAVLDALRPLGVEVEVDPSA [r9_167_TrMRF] | – | < -1
SVVTPYPDGTVVETEPVGDTVLRLVRRPRPLPGGEPVERTTVVLEPVSTRPLPNGELVTERPVLEEEHHHSA [r9_235_JUSTAS] | – | < -1
VSPEEKEKLEKLAAEPKPIKRTLEITTVKSEGPVELYVFTKKYFVPGKGEEVGEEVVVVPPEEVEELLAELS [r1_415_JUSTAS] | – | < -1
WIRIPNGQPFRIKAKMKNPDGDDRKHTGKIPMEELGQKNGRPITPEDILDEIKEEARDHGAPVEDVEIEYYS [r1_338_TrROS] | – | < -1
YEIKDVEFPPYEHPGQEYPMFKIEVKDENGKPKKKVYINPNSGQLIPPGQSLEDMPMPPPFRKFAKELADES [r1_354_TrROS] | – | < -1
